Experimental data reported in US7566535B2, “Enhanced oligonucleotide-mediated nucleic acid sequence alteration” (University of Delaware, priority 2002, dated 2009).
In the oligonucleotide strings, read from the 5' end, every base follows the letter of its sugar. An asterisk marks phosphorothioate; unmarked linkages are phosphodiester. Other units and linkages are bracketed, terminal groups are in braces. A string of capitals states the bases alone. d = 2'-deoxy (DNA)

Key:
pAURHYG(x)eGFP = assay: Hygromycin gene correction in yeast LSY678 with or without trichostatin A; settings: 5 μg oligo
pAURHYG(rep)eGFP [1] = assay: Correction of pAURHYG(rep)eGFP in yeast LSY678 with or without hydroxyurea; settings: 5 μg oligo (1.62 μg Hyg10)
pAURHYG(rep)eGFP [2] = assay: In vivo correction of episomal pAURHYG(rep)eGFP in yeast, hygromycin-resistant colonies; settings: for Average colony count on hygromycin plates / hygromycin-resistant colonies per aureobasidin-resistant colony: wild-type LSY678; for Colonies on Hygromycin / Correction Efficiency / Fold: 5 μg oligo
[3] = Cells both pre-treated and treated during recovery with 50 μg/mL trichostatin A

B1: HygE3T/74: 74-base single-stranded DNA oligonucleotide, three phosphorothioate linkages at each end, SEQ ID NO: 8 (nucleic acid)
DNA: dC*dT*dC*dGdTdGdCdTdTdTdCdAdGdCdTdTdCdGdAdTdGdTdAdGdGdAdGdGdGdCdGdTdGdGdAdTdAdCdGdTdCdCdTdGdCdGdGdGdTdAdAdAdTdAdGdCdTdGdCdGdCdCdGdAdTdGdGdTdTdTdC*dT*dA*dC
pAURHYG(x)eGFP; [3]
  Correction Efficiency: 2.05 1/10^5
  Hyg^r: 230
pAURHYG(x)eGFP; Cells treated during recovery with 50 μg/mL trichostatin A
  Correction Efficiency: 0.34 1/10^5
pAURHYG(x)eGFP; No treatment
  Correction Efficiency: 0.16 1/10^5
pAURHYG(rep)eGFP [1]; 20 mM hydroxyurea 4 h pre-treatment, growth time 10 min
  Correction Efficiency: 3.1 hygromycin resistant colonies
pAURHYG(rep)eGFP [1]; 20 mM hydroxyurea 4 h pre-treatment, growth time 20 min
  Correction Efficiency: 4.9 hygromycin resistant colonies
pAURHYG(rep)eGFP [1]; 20 mM hydroxyurea 4 h pre-treatment, growth time 40 min
  Correction Efficiency: 9.5 hygromycin resistant colonies
pAURHYG(rep)eGFP [1]; 20 mM hydroxyurea 4 h pre-treatment, growth time 60 min
  Correction Efficiency: 7.8 hygromycin resistant colonies
pAURHYG(rep)eGFP [1]; 20 mM hydroxyurea 4 h pre-treatment, growth time 90 min
  Correction Efficiency: 22.4 hygromycin resistant colonies
pAURHYG(rep)eGFP [1]; no hydroxyurea, growth time 10 min
  Correction Efficiency: 0.15 hygromycin resistant colonies
pAURHYG(rep)eGFP [1]; no hydroxyurea, growth time 20 min
  Correction Efficiency: 2.9 hygromycin resistant colonies
pAURHYG(rep)eGFP [1]; no hydroxyurea, growth time 40 min
  Correction Efficiency: 3.4 hygromycin resistant colonies
pAURHYG(rep)eGFP [1]; no hydroxyurea, growth time 60 min
  Correction Efficiency: 2.32 hygromycin resistant colonies
pAURHYG(rep)eGFP [1]; no hydroxyurea, growth time 90 min
  Correction Efficiency: 0.56 hygromycin resistant colonies
pAURHYG(rep)eGFP [2]; 1.0 μg oligo
  Average colony count on hygromycin plates: 5
  hygromycin-resistant colonies per aureobasidin-resistant colony: 0.03
pAURHYG(rep)eGFP [2]; 2.5 μg oligo
  Average colony count on hygromycin plates: 99
  hygromycin-resistant colonies per aureobasidin-resistant colony: 0.61
pAURHYG(rep)eGFP [2]; 5.0 μg oligo
  Average colony count on hygromycin plates: 204
  hygromycin-resistant colonies per aureobasidin-resistant colony: 1.26
pAURHYG(rep)eGFP [2]; 7.5 μg oligo
  Average colony count on hygromycin plates: 69
  hygromycin-resistant colonies per aureobasidin-resistant colony: 0.42
pAURHYG(rep)eGFP [2]; 10.0 μg oligo
  Average colony count on hygromycin plates: 19
  hygromycin-resistant colonies per aureobasidin-resistant colony: 0.12
pAURHYG(rep)eGFP [2]; Msh2 mutant
  Colonies on Hygromycin: 0
  Correction Efficiency: 0
  Fold: 0x
pAURHYG(rep)eGFP [2]; Msh3 mutant
  Colonies on Hygromycin: 0
  Correction Efficiency: 0
  Fold: 0x
pAURHYG(rep)eGFP [2]; Msh6 mutant
  Colonies on Hygromycin: 1,270
  Correction Efficiency: 2.35
  Fold: 0.55x
pAURHYG(rep)eGFP [2]; Pms1 mutant
  Colonies on Hygromycin: 2,280
  Correction Efficiency: 114
  Fold: 26.76x
pAURHYG(rep)eGFP [2]; Rad1 mutant
  Colonies on Hygromycin: 1,380
  Correction Efficiency: 8.52
  Fold: 2.00x
pAURHYG(rep)eGFP [2]; Rad2 mutant
  Colonies on Hygromycin: 919
  Correction Efficiency: 3.78
  Fold: 0.89x
pAURHYG(rep)eGFP [2]; exo1 mutant
  Colonies on Hygromycin: 486
  Correction Efficiency: 3.92
  Fold: 0.92x
pAURHYG(rep)eGFP [2]; mre11 mutant
  Colonies on Hygromycin: 12
  Correction Efficiency: 0.63
  Fold: 0.15x
pAURHYG(rep)eGFP [2]; rad10 mutant
  Colonies on Hygromycin: 54
  Correction Efficiency: 0.15
  Fold: 0.04x
pAURHYG(rep)eGFP [2]; rad23 mutant
  Colonies on Hygromycin: 66
  Correction Efficiency: 0.44
  Fold: 0.10x
pAURHYG(rep)eGFP [2]; rad50 mutant
  Colonies on Hygromycin: 336
  Correction Efficiency: 2.09
  Fold: 0.49x
pAURHYG(rep)eGFP [2]; rad51/52 mutant
  Colonies on Hygromycin: 212
  Correction Efficiency: 5.45
  Fold: 1.28x
pAURHYG(rep)eGFP [2]; rad51 mutant
  Colonies on Hygromycin: 104
  Correction Efficiency: 0.62
  Fold: 0.14x
pAURHYG(rep)eGFP [2]; rad52 mutant
  Colonies on Hygromycin: 266
  Correction Efficiency: 3.29
  Fold: 0.77x
pAURHYG(rep)eGFP [2]; rad54 mutant
  Colonies on Hygromycin: 2
  Correction Efficiency: 0.02
  Fold: 0x
pAURHYG(rep)eGFP [2]; rad55 mutant
  Colonies on Hygromycin: 0
  Correction Efficiency: 0
  Fold: 0x
pAURHYG(rep)eGFP [2]; rad57 mutant
  Colonies on Hygromycin: 984
  Correction Efficiency: 17.26
  Fold: 4.05x
pAURHYG(rep)eGFP [2]; rad59 mutant
  Colonies on Hygromycin: 1,198
  Correction Efficiency: 3.06
  Fold: 0.71x
pAURHYG(rep)eGFP [2]; wild type
  Colonies on Hygromycin: 1,218
